Series [1] concerns Circular plasmid DNA (pUC 18). As to the kind of experiment: degradation of circular plasmid DNA (agarose gel electrophoresis). It is filed as biochemical. The note with it: single enzyme, 25 degrees Celsius, 15 minutes; NucL level up to 0.5 U. How it is done: Circular plasmid DNA (pUC 18) that had been purified by using a plasmid purification kit (HiSpeed (Registered Trademark) Plasmid Midi Kit; manufactured by QIAGEN, Cat no. 12643) was used as substrate to analyze nucleic-acid degradation styles of NucS and NucL. According to the standard specific activity measurement method, the enzyme solutions that were different in enzyme level as shown in the table below were added to a plasmid solution (about 2 to 10 μg). Then, a nucleic-acid degradation reaction was carried out at 25 degrees Celsius for 15 minutes. After the degradation, a reaction solution was subjected to a 1-percent agarose gel electrophoresis, and the degradation manner of the degraded DNA was analyzed.
Next, the enzyme level of NucL was increased to 0.5 U, and a test was conducted to examine if the plasmid could be completely degraded (referring to FIG. 13).

Series [2] concerns RNA (mRNA derived from yeast). As to the kind of experiment: degrading activity for RNA. It is filed as biochemical.
The next series concerns Salmon sperm DNA. In words: standard specific activity measurement method (increase of absorbancy at 260 nm). It is filed as biochemical. The note with it: 37 degrees Celsius; for specific activity: purified enzyme, 30 minutes, 20 mM Tris/HCl pH 8.5, 1 mM MgCl2, 1 mM CaCl2. How it is done: The specific activity of NucS was measured at 37 degrees Celsius in 20 mM of Tris/HCl at pH 8.5 that contains 1 mM of MgCl2 and 1 mM of CaCl2 (a measurement method under the condition described here is also referred to as a standard specific activity measurement method, hereinafter); the specific activity was 3.6×10^6 U/mg-protein, which was a very high level of specific activity. In this case, 1 U represents an amount of enzymes necessary to increase the absorbancy of 260 nm by one for 30 minutes when the enzymes works on the following as substrate: Salmon sperm DNA 1 mg/mL (manufactured by Invitrogen; Cat no. 15632-011). As a reference, as for NucS, when the specific activity of Benzonase (Registered Trademark), which was a commercially available nucleolytic enzyme that had the highest specific activity among those listed in a brochure, was measured under the conditions described in the brochure (37 degrees Celsius) with the use of the same substrate; the specific activity was 9.4×10^5 U/mg-protein. As a result, it became clear that the specific activity of NucS is about 3.8 times higher than that of Benzonase.
(§1) The specific activity of NucL was 5.6×10^4 U/mg-protein at 37 degrees Celsius in 20 mM of Tris/HCl at pH 8.5 that contains 1 mM of MgCl2 and 1 mM of CaCl2. The isoelectric point was measured by using Novex (Registered Trademark) IEF pH-3-10 gel (manufactured by Invitrogen); and then pl was 7.0. Then, it was determined that a N-terminal amino acid sequence of the purified enzyme was DSVRIHDIQGTTR. The sequence matched 12 out of 13 amino acids of putative protein (putative secreted hydrolase) coded on a genome of Streptomyces scabiei 87.22, and of putative protein (large secreted protein) coded on a genome of S. avermitilis MA-4680.

Series [3] is described as follows: isoelectric point by Novex IEF pH-3-10 gel. It is filed as physicochemical. The procedure: The molecular weight was measured by gel filtration chromatography with the use of Superdex G75 (manufactured by GE Healthcare). An elution position corresponding to a molecular weight of about 16 kDa was confirmed as a peak top from a column. Since the value was much coincident with a molecular weight (about 17 to 21 kDa) of an enzyme produced on SDS-PAGE, it can be determined that NucS exists as monomer. The isoelectric point was measured by using Novex (Registered Trademark) IEF pH-3-10 gel (manufactured by Invitrogen); and pl was 10.
as §1

Series [4] can be described thus: effects of temperature on enzyme activity. The format is biochemical. The note with it: 15 minutes, 20 mM Tris/HCl pH 8.5, 1 mM MgCl2, 1 mM CaCl2. The procedure: Under each temperature condition, the nucleic-acid degradation activity was measured for 15 minutes in 20 mM of Tris/HCl at pH 8.5 that contained 1 mM of MgCl2 and 1 mM of CaCl2.

B1: NucL: nucleolytic enzyme of about 66.5 kDa secreted by Streptomyces sp. MBE174; SEQ ID NO. 4 (protein)
chain: MASQSVTRLAALTVAATCSAASVVVLGPPAHADSVRIHDIQGTTRISPYAGRQVADVPGVVTGVRDHGSSRGFWFQDPRPDDDPATSEGVFVFTGSAPGVEAGDAVTVSGTVSEFVPGGTASGNQSLTEITRPTVTVVSRGNPVPDPVVVSARSVPHAYAPAGDAAANGSVNALPLRPDRYALDYYESLEGMNVQVADARVVGATDPYTELWVTVKPGENASPRGGTVYGSRDAQNTGRLQIQTLGVPAGFPAADVGDTLAGATTGPLDYNQFGGYTLVARSLGTLTAGGLARETTREQHRDELSVATYNVENLDPSDGTFAAHAEAIVRNLRSPDIVSLEEIQDDNGATDDGTVTAGVTVGKLIDAVVAAGGPRYDWRSVDPVDKADGGQPGGNIRQVFLFDPRRVSFADRPGGDAVTATGVVKVRGKAALTHSPGRVDPANPAWLNSRKPLAGEFSFRGRTVFVIANHFASKGGDQGLTSQYQPPARSSETQRHLQATAVNTFVKQILAVQKNADVIALGDINDFEFSGTTERLEAGGALWSAVRSLPPGERYSYVYQGNSQVLDQILVSPSIRRGHLSYDSVHINAEFHDQISDHDPQVLRYRP
modifications: Streptmyces sp. MBE174
B1: the “degradation of circular plasmid DNA, supercoiled or relaxed type” value in series [1] is given as “could completely degrade the plasmids”. Also, the RNA degrading activity result in series [2] is on record as “did not show RNA degrading activity”. In the series with Salmon sperm DNA, the specific activity is 5.6×10^4 U/mg-protein. For the same molecule, the “isoelectric point (pl)” value in series [3] is given as 7.0. For the same molecule, the optimum reaction temperature entry in series [4] is listed as “around 45 degrees Celsius”.

B2: NucS: low-molecular-weight nucleolytic enzyme, about 17 to 21 kDa, secreted by Streptomyces sp. MBE174; SEQ ID NO. 3 (protein)
chain: MPKLYARRRFAVLAALTGLIASAGLFHGPAASAALPTPVSAATARGYLASLKVAPENRTGYKRDLFPHWITQSGTCNTRETVLKRDGTNVVTDAACAATSGSWYSPFDGATWTAASDVDIDHLVPLAEAWDSGASAWTTAQRQAFANDLTRPQLLAVTDTVNQSKGDKDPAEWMPPRAAYHCTYVRAWVQVKYYYGLSVDTAEKTALTNRLAGC
modifications: Streptmyces sp. MBE174
As to B2, the “degradation of circular plasmid DNA, supercoiled or relaxed type” value in series [1] is “could completely degrade the plasmids”. Moreover, the RNA degrading activity result in series [2] was “showed RNA degrading activity”. The “specific activity of NucS relative to Benzonase” value with Salmon sperm DNA (same substrate) is reported as “about 3.8 times”. Besides, the specific activity in the series on Salmon sperm DNA is 3.6×10^6 U/mg-protein. For the same molecule, the “isoelectric point (pl)” value in series [3] was 10. Further, in series [4], the optimum reaction temperature result is “around 55 degrees Celsius”.

The values above are taken from US9217139B2, “Extracellularly secreted nuclease” (JAPAN AGENCY FOR MARINE-EARTH SCIENCE AND TECHNOLOGY, priority 2010, dated 2015).
